The results in this text go back to PMC7572642 (Journal of molecular biology, 2020).

The data set deals with the molecule itself. Briefly: crystal structure.

B1: chicken cone PDE6 GAFab regulatory domain (residues 42–458 of the chicken cone PDE6C catalytic subunit) (domain or fragment, UniProt P52731 42-458, looked up)
chain: GDVKEGVSFKDMSRLEECNILFELLTEIQDEAGSMEKIVHKTLQRLSQLLAADRCSMFICRSRNGIPEVATRLLNVTPTSKFEDNLVNPDKETVFPLDIGIAGWVAHTKKFFNIPDVKKNNHFSDYLDKKTGYTTVNMMAIPITQGKEVLAVVMALNKLNASEFSKEDEEVFKKYLNFISLVLRNHHTSYLYNIESRRSQMLLWSANKVFEELTDIERQFHKALYTIRMYLNCERYSVGLLDMTKEKEFYDEWPIRLGEAEPYKGPKTPDGREVNFYKIIDYILHGKEEIKVIPTPPADHWCLISGLPTYVAENGFICNMMNAPADEYFTFQKGPVDETGWVIKNVLSLPIVNKKEEIVGVATFYNRKDGKPFDEYDEQIIETLTQFLGWSVLNTDTYDKMNKLENRKDIAQEMLMY
As to B1, the binding result was “binds”.
